What was measured:
[1] = GDH enzymatic assay with NMN^+ as cofactor; format: biochemical; conditions: for impact of mutation on activity towards NMN^+: without I195R
Experimental: GDH enzymatic assays. The GDH activity was measured as described in Hilt et al. (Biochimica et biophysica acta 1076(2):298-304 (1991)). The reactions were started by adding the purified protein to the assay mixture containing 35 mM Tris-HCl buffer (pH 8.0), 3 mM NAD^+, NADP^+ or NMN^+ and 140 mM glucose. The absorbance variation at 340 nm was detected by a spectrophotometer at 25° C.

[2] = Protein expression levels of GDH variants; parameters: species or system Escherichia coli; conditions: expressed in E. coli
Experimental: Proteins were purified as 6×His tag fusion at the N-terminus. E. coli BL21 (DE3) with plasmids were inoculated into LB medium with 200 mg L^−1 ampicillin. Cells were induced with 0.5 mM IPTG and expressed for 24 hours at 30° C. with shaking at 250 rpm. BM3 cytochrome P450 was extracted with the EMD Millipore™ BugBuste Plus Lysonase Kit and purified using the HisPur™ Ni-NTA Superflow Purification System according to the manufacturer's instructions. Other proteins were purified using His-Spin Protein Miniprep kit (Zymo Research Corporation, CA). The purified proteins were quantified by Bradford assay.

[3] = specific activity towards NMN^+

Row | Molecule | Expression level [2] | also measured
1 | A93K: Bs GDH with A93K substitution (SEQ ID NO:3) (protein, A93K mutant GDH coding sequence) MYPDLKGKVVAITGAASGLGKAMAIRFGKEQAKVVINYYSNKQDPNEVKEEVIKAGGEAVVVQGDVTKEEDVKNIVQTAIKEFGTLDIMINNKGLENPVPSHEMPLKDWDKVIGTNLTGAFLGSREAIKYFVENDIKGNVINMSSVHEVIPWPLFVHYAASKGGIKLMTETLALEYAPKGIRVNNIGPGAINTPINAEKFADPKQKADVESMIPMGYIGEPEEIAAVAAWLASKEASYVTGITLFADGGMTQYPSFQAGRG | – | impact of mutation on activity towards NMN^+ [1]: lack of impact on activity
2 | S17Q-P194N (protein) MYPDLKGKVVAITGAAQGLGKAMAIRFGKEQAKVVINYYSNKQDPNEVKEEVIKAGGEAVVVQGDVTKEEDVKNIVQTAIKEFGTLDIMINNAGLENPVPSHEMPLKDWDKVIGTNLTGAFLGSREAIKYFVENDIKGNVINMSSVHEVIPWPLFVHYAASKGGIKLMTETLALEYAPKGIRVNNIGPGAINTNINAEKFADPKQKADVESMIPMGYIGEPEEIAAVAAWLASKEASYVTGITLFADGGMTQYPSFQAGRG | 117.63 μg protein/ml culture | –
3 | G94S (protein) MYPDLKGKVVAITGAASGLGKAMAIRFGKEQAKVVINYYSNKQDPNEVKEEVIKAGGEAVVVQGDVTKEEDVKNIVQTAIKEFGTLDIMINNASLENPVPSHEMPLKDWDKVIGTNLTGAFLGSREAIKYFVENDIKGNVINMSSVHEVIPWPLFVHYAASKGGIKLMTETLALEYAPKGIRVNNIGPGAINTPINAEKFADPKQKADVESMIPMGYIGEPEEIAAVAAWLASKEASYVTGITLFADGGMTQYPSFQAGRG | 117.50 μg protein/ml culture | –
4 | I195S (protein) MYPDLKGKVVAITGAASGLGKAMAIRFGKEQAKVVINYYSNKQDPNEVKEEVIKAGGEAVVVQGDVTKEEDVKNIVQTAIKEFGTLDIMINNAGLENPVPSHEMPLKDWDKVIGTNLTGAFLGSREAIKYFVENDIKGNVINMSSVHEVIPWPLFVHYAASKGGIKLMTETLALEYAPKGIRVNNIGPGAINTPSNAEKFADPKQKADVESMIPMGYIGEPEEIAAVAAWLASKEASYVTGITLFADGGMTQYPSFQAGRG | 96.33 μg protein/ml culture | –
5 | I195R-Y39Q: Bs GDH variant I195R Y39Q (protein) MYPDLKGKVVAITGAASGLGKAMAIRFGKEQAKVVINYQSNKQDPNEVKEEVIKAGGEAVVVQGDVTKEEDVKNIVQTAIKEFGTLDIMINNAGLENPVPSHEMPLKDWDKVIGTNLTGAFLGSREAIKYFVENDIKGNVINMSSVHEVIPWPLFVHYAASKGGIKLMTETLALEYAPKGIRVNNIGPGAINTPRNAEKFADPKQKADVESMIPMGYIGEPEEIAAVAAWLASKEASYVTGITLFADGGMTQYPSFQAGRG | 57.60 μg protein/ml culture | lower activity than GDH Triple [1, 3]: 14 fold; slower than I195R [1, 3]: 2.4 fold
6 | I195R-A93K: Bs GDH variant I195R A93K (protein) MYPDLKGKVVAITGAASGLGKAMAIRFGKEQAKVVINYYSNKQDPNEVKEEVIKAGGEAVVVQGDVTKEEDVKNIVQTAIKEFGTLDIMINNKGLENPVPSHEMPLKDWDKVIGTNLTGAFLGSREAIKYFVENDIKGNVINMSSVHEVIPWPLFVHYAASKGGIKLMTETLALEYAPKGIRVNNIGPGAINTPRNAEKFADPKQKADVESMIPMGYIGEPEEIAAVAAWLASKEASYVTGITLFADGGMTQYPSFQAGRG | 11.17 μg protein/ml culture | lower activity than GDH Triple [1, 3]: 9 fold
7 | L19H-I191S (protein) MYPDLKGKVVAITGAASGHGKAMAIRFGKEQAKVVINYYSNKQDPNEVKEEVIKAGGEAVVVQGDVTKEEDVKNIVQTAIKEFGTLDIMINNAGLENPVPSHEMPLKDWDKVIGTNLTGAFLGSREAIKYFVENDIKGNVINMSSVHEVIPWPLFVHYAASKGGIKLMTETLALEYAPKGIRVNNIGPGASNTPINAEKFADPKQKADVESMIPMGYIGEPEEIAAVAAWLASKEASYVTGITLFADGGMTQYPSFQAGRG | No expression (<1) μg protein/ml culture | –
8 | I195T (protein) MYPDLKGKVVAITGAASGLGKAMAIRFGKEQAKVVINYYSNKQDPNEVKEEVIKAGGEAVVVQGDVTKEEDVKNIVQTAIKEFGTLDIMINNAGLENPVPSHEMPLKDWDKVIGTNLTGAFLGSREAIKYFVENDIKGNVINMSSVHEVIPWPLFVHYAASKGGIKLMTETLALEYAPKGIRVNNIGPGAINTPTNAEKFADPKQKADVESMIPMGYIGEPEEIAAVAAWLASKEASYVTGITLFADGGMTQYPSFQAGRG | 105.51 μg protein/ml culture | –
9 | M143T (protein) MYPDLKGKVVAITGAASGLGKAMAIRFGKEQAKVVINYYSNKQDPNEVKEEVIKAGGEAVVVQGDVTKEEDVKNIVQTAIKEFGTLDIMINNAGLENPVPSHEMPLKDWDKVIGTNLTGAFLGSREAIKYFVENDIKGNVINTSSVHEVIPWPLFVHYAASKGGIKLMTETLALEYAPKGIRVNNIGPGAINTPINAEKFADPKQKADVESMIPMGYIGEPEEIAAVAAWLASKEASYVTGITLFADGGMTQYPSFQAGRG | 94.55 μg protein/ml culture | –
10 | Y39Q: Bs GDH with Y39Q substitution (SEQ ID NO:4) (protein, Y39Q mutant GDH coding sequence) MYPDLKGKVVAITGAASGLGKAMAIRFGKEQAKVVINYQSNKQDPNEVKEEVIKAGGEAVVVQGDVTKEEDVKNIVQTAIKEFGTLDIMINNAGLENPVPSHEMPLKDWDKVIGTNLTGAFLGSREAIKYFVENDIKGNVINMSSVHEVIPWPLFVHYAASKGGIKLMTETLALEYAPKGIRVNNIGPGAINTPINAEKFADPKQKADVESMIPMGYIGEPEEIAAVAAWLASKEASYVTGITLFADGGMTQYPSFQAGRG | – | impact of mutation on activity towards NMN^+ [1]: lack of impact on activity
11 | N92A (protein) MYPDLKGKVVAITGAASGLGKAMAIRFGKEQAKVVINYYSNKQDPNEVKEEVIKAGGEAVVVQGDVTKEEDVKNIVQTAIKEFGTLDIMINAAGLENPVPSHEMPLKDWDKVIGTNLTGAFLGSREAIKYFVENDIKGNVINMSSVHEVIPWPLFVHYAASKGGIKLMTETLALEYAPKGIRVNNIGPGAINTPINAEKFADPKQKADVESMIPMGYIGEPEEIAAVAAWLASKEASYVTGITLFADGGMTQYPSFQAGRG | 81.16 μg protein/ml culture | –
12 | A93K-Y39Q: Bs GDH variant A93K-Y39Q (protein) MYPDLKGKVVAITGAASGLGKAMAIRFGKEQAKVVINYQSNKQDPNEVKEEVIKAGGEAVVVQGDVTKEEDVKNIVQTAIKEFGTLDIMINNKGLENPVPSHEMPLKDWDKVIGTNLTGAFLGSREAIKYFVENDIKGNVINMSSVHEVIPWPLFVHYAASKGGIKLMTETLALEYAPKGIRVNNIGPGAINTPINAEKFADPKQKADVESMIPMGYIGEPEEIAAVAAWLASKEASYVTGITLFADGGMTQYPSFQAGRG | – | impact of mutation on activity towards NMN^+ [1]: lack of impact on activity
13 | N92V (protein) MYPDLKGKVVAITGAASGLGKAMAIRFGKEQAKVVINYYSNKQDPNEVKEEVIKAGGEAVVVQGDVTKEEDVKNIVQTAIKEFGTLDIMINVAGLENPVPSHEMPLKDWDKVIGTNLTGAFLGSREAIKYFVENDIKGNVINMSSVHEVIPWPLFVHYAASKGGIKLMTETLALEYAPKGIRVNNIGPGAINTPINAEKFADPKQKADVESMIPMGYIGEPEEIAAVAAWLASKEASYVTGITLFADGGMTQYPSFQAGRG | 57.56 μg protein/ml culture | –
14 | M143S (protein) MYPDLKGKVVAITGAASGLGKAMAIRFGKEQAKVVINYYSNKQDPNEVKEEVIKAGGEAVVVQGDVTKEEDVKNIVQTAIKEFGTLDIMINNAGLENPVPSHEMPLKDWDKVIGTNLTGAFLGSREAIKYFVENDIKGNVINSSSVHEVIPWPLFVHYAASKGGIKLMTETLALEYAPKGIRVNNIGPGAINTPINAEKFADPKQKADVESMIPMGYIGEPEEIAAVAAWLASKEASYVTGITLFADGGMTQYPSFQAGRG | 40.60 μg protein/ml culture | –
15 | M143G-L19G-I224R (protein) MYPDLKGKVVAITGAASGGGKAMAIRFGKEQAKVVINYYSNKQDPNEVKEEVIKAGGEAVVVQGDVTKEEDVKNIVQTAIKEFGTLDIMINNAGLENPVPSHEMPLKDWDKVIGTNLTGAFLGSREAIKYFVENDIKGNVINGSSVHEVIPWPLFVHYAASKGGIKLMTETLALEYAPKGIRVNNIGPGAINTPINAEKFADPKQKADVESMIPMGYIGEPEERAAVAAWLASKEASYVTGITLFADGGMTQYPSFQAGRG | No expression (<1) μg protein/ml culture | –
